Like-named read-outs stand apart in the source and are kept apart here. Values belong to the binder of their own block, whether it stands above or below them.
B2: MIRO1_(1-591), full-length cytosolic human MIRO1 (domain or fragment, UniProt Q8IXI2 1-591, looked up)
chain: MKKDVRILLVGEPRVGKTSLIMSLVSEEFPEEVPPRAEEITIPADVTPERVPTHIVDYSEAEQSDEQLHQEISQANVICIVYAVNNKHSIDKVTSRWIPLINERTDKDSRLPLILVGNKSDLVEYSSMETILPIMNQYTEIETCVECSAKNLKNISELFYYAQKAVLHPTGPLYCPEEKEMKPACIKALTRIFKISDQDNDGTLNDAELNFFQRICFNTPLAPQALEDVKNVVRKHISDGVADSGLTLKGFLFLHTLFIQRGRHETTWTVLRRFGYDDDLDLTPEYLFPLLKIPPDCTTELNHHAYLFLQSTFDKHDLDRDCALSPDELKDLFKVFPYIPWGPDVNNTVCTNERGWITYQGFLSQWTLTTYLDVQRCLEYLGYLGYSILTEQESQASAVTVTRDKKIDLQKKQTQRNVFRCNVIGVKNCGKSGVLQALLGRNLMRQKKIREDHKSYYAINTVYVYGQEKYLLLHDISESEFLTEAEIICDVVCLVYDVSNPKSFEYCARIFKQHFMDSRIPCLIVAAKSDLHEVKQEYSISPTDFCRKHKMPPPQAFTCNTADAPSKDIFVKLTTMAMYPHVTQADLKSST

Legend:
cryo-EM structure = molecular target: the molecule itself; assay: cryo-EM structure
mass photometry = molecular target: the molecule itself; assay: mass photometry
[1] = molecular target: B2; assay: pull-down
[2] = molecular target: B2; assay: pull-down; remark: listed apart in the source
MIRO1_(177-591) = MIRO1_(177-591) (human, UniProt Q8IXI2 177-591); assay: ITC

B1: TRAK1_(569-623) (domain or fragment, human, UniProt Q9UPV9 569-623, looked up)
chain: YLPEKLQIVKPLEGSATLHHWQQLAQPHLGGILDPRPGVVTKGFRTLDVDLDEVY
binding result (cryo-EM structure): binds

Binder: B2
stoichiometry N (mass photometry): 2

B5: MBP-TRAK1_(416-446,561-623) L597D (domain or fragment, human, UniProt Q9UPV9 416-446, looked up)
chain: RSLTPSPMNIPGSNQSSAMNSLLSSCVSTPRGMSFSSRSYLPEKLQIVKPLEGSATLHHWQQLAQPHDGGILDPRPGVVTKGFRTLDVDLDEVY
binding result [2]: binds

More lines, now with the values ahead:

binding result [1]: binds
B3: MBP-TRAK1_(416-446,561-623) (domain or fragment, human, UniProt Q9UPV9 416-446, looked up)
chain: RSLTPSPMNIPGSNQSSAMNSLLSSCVSTPRGMSFSSRSYLPEKLQIVKPLEGSATLHHWQQLAQPHLGGILDPRPGVVTKGFRTLDVDLDEVY

binding result [2]: binds
B4: MBP-TRAK1_(416-446,561-623) W589D (domain or fragment, human, UniProt Q9UPV9 416-446, looked up)
chain: RSLTPSPMNIPGSNQSSAMNSLLSSCVSTPRGMSFSSRSYLPEKLQIVKPLEGSATLHHDQQLAQPHLGGILDPRPGVVTKGFRTLDVDLDEVY

Kd (MIRO1_(177-591)): 10.9 to 15.9 µM
stoichiometry N (MIRO1_(177-591)): 1
Binder: RSLTPSPMNIPGSNQS (peptide, UniProt Q9UPV9 416-431, looked up) [MBP-TRAK1_(416-431)]

Source: publication PMC12227652 (Nature Communications, 2025)
